The values that follow come from patent US12084487B2, “Nanoparticles having molecules that bind or block PD-L1 and uses in treating cancer” (Emory University, priority 2016, dated 2024).

The test concerns the target T1, PD-L1 on tumor cell surfaces (mouse pancreatic cancer KC cells) (Mus musculus, UniProt Q9EP73).
T1 construct: endogenous in cells; host or cells: KC mouse pancreatic cancer cells (Pdx1-Cre; LSL-K-rasG12D derived)
Put plainly: Competition-binding assay of FITC labeled PD-1 peptides with anti-mouse PD-L1 antibody on KC cells. The note with it: for fluorescence intensity on cells: FITC labeled peptide 2 μg/ml. How it is done:
Two (2) μg of FITC labeled PD-1 peptides were mixed with 0, 5, 20 μg of anti-mouse PD-L1 antibody and then incubated with the KC cells for 2 hours. Unbound peptides and antibodies were washed off. Relative fluorescent intensities of KC cells were measured for each group.
Next, a competition-binding assay was performed to determine specificity of the PD-1 like peptides binding to PD-L1 on tumor cell surfaces. […] The peptides were then added to tissue culture plates with mouse pancreatic cancer KC cells.

T1 sequence (Q9EP73 19-290): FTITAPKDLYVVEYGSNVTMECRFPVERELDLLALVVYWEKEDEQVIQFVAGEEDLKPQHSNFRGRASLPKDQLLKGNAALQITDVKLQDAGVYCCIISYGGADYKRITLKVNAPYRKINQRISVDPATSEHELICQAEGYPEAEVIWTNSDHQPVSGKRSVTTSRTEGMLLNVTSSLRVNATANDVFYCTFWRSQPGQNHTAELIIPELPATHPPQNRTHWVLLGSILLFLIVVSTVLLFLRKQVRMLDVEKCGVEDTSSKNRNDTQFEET

On to “NWNRLSPSNQTEKQAACGAISLHPKAKIEESPGHHHH [PD-1(Lin)]”, for which the “fluorescence intensity on cells” value was “High levels of fluorescence intensity”. As to “NWNRLSPSNQTEKQAAPHHHHCGAISLHPKAKIEE [PD-1 (Y)]”, the “fluorescence intensity on cells” value is given as “High levels of fluorescence intensity”. In addition, where the note is “20 μg/ml anti-PD-L1 antibody”, the “binding to cells with anti-PD-L1 antibody added” value is reported as “reduced”.
